Test results published in patent US20150273042.

Columns and labels:
[1] = target: recombinant BP-2a (strain 515) with Lys189 replaced by alanine
[2] = target: recombinant ancillary protein 2 of GBS pilus 2a (AP2-2a)
[3] = target: pilus protein from Streptococcus pneumoniae (RrgB)
[4] = target: T1, recombinant backbone protein of GBS pilus 2a (BP-2a, GBS59), strain 515, BP 30-649
T1 chain: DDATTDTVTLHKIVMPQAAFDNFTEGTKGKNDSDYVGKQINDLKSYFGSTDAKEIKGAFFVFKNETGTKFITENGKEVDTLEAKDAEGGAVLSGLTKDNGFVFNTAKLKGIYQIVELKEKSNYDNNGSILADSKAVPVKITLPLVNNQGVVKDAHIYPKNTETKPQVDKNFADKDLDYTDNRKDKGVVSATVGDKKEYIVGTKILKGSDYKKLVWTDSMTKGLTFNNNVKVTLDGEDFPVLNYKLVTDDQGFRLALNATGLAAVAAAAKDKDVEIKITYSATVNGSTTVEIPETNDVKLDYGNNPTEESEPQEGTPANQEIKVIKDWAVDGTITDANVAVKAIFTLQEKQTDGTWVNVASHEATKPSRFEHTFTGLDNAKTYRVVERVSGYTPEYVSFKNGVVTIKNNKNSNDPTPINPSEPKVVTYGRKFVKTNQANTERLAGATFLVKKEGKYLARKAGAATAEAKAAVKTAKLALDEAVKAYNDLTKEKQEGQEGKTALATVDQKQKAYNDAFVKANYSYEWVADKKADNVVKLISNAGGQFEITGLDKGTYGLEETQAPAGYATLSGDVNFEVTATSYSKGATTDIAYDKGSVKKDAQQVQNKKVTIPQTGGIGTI

[5] = target: T2, backbone protein PI-1 of GBS (GBS 80)
T2 chain: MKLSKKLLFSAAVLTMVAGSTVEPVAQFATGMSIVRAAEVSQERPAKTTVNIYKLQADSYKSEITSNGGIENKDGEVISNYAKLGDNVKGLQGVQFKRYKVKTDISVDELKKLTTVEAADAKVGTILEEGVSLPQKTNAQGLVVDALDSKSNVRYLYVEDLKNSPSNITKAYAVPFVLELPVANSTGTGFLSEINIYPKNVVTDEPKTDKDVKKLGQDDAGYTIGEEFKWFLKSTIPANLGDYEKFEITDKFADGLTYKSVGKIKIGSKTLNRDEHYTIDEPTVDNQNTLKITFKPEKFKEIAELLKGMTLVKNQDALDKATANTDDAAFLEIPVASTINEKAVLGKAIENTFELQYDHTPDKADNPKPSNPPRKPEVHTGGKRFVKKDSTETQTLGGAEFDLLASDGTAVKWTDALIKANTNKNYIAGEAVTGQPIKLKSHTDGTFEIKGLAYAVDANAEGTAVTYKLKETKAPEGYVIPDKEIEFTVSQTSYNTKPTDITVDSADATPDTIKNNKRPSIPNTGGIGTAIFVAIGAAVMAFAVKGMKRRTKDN

[6] = target: T3, recombinant BP-2a (strain 515) lacking the C-terminal IPQTG sorting signal, BP 30-640
T3 chain: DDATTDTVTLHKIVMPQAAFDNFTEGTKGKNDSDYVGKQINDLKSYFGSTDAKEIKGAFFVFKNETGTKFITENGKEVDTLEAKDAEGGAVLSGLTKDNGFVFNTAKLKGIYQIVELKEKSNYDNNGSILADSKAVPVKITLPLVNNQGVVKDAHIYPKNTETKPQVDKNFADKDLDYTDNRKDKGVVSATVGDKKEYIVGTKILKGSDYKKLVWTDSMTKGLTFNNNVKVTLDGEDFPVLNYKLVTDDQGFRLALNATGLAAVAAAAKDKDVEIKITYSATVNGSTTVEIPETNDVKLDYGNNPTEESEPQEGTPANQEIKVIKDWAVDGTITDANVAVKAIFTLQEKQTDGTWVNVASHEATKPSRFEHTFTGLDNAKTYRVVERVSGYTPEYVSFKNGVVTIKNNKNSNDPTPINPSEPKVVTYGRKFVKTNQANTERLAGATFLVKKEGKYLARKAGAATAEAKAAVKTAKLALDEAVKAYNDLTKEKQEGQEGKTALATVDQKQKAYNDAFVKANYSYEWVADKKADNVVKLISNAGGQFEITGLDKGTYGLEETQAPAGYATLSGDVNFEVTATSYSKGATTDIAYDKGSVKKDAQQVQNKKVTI

[7] = target: recombinant ancillary protein 1 of GBS pilus 2a (AP1-2a)
[8] = target: GFP-… (EGFP from pSpeedET with … added at the C-terminus)
[9] = target: synthetic fluorescent peptide carrying the LPXTG sorting motif of PI-1 backbone protein
[10] = target: synthetic fluorescent peptide carrying the LPXTG sorting motif of PI-1 minor ancillary protein
[11] = target: T4, backbone protein of GBS PI-2b (Spb1) expressed from a complementation vector in GBS strain 515Δ2a
T4 chain: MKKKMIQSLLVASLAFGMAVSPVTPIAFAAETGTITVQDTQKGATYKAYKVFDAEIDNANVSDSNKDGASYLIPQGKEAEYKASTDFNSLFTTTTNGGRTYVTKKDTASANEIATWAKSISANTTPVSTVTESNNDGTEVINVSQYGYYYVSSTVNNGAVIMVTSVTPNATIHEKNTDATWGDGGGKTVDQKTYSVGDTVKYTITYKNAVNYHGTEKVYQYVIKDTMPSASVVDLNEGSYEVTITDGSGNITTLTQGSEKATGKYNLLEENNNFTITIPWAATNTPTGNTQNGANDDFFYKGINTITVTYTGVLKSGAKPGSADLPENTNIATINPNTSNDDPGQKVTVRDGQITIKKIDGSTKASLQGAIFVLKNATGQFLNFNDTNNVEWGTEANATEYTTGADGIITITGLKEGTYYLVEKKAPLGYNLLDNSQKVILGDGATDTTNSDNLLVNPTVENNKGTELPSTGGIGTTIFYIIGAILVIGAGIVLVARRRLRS

B1: GBS sortase C1 of PI-2a lid mutant SrtC1Y86A (protein)
chain: ESNNQTQDFERAAKKLSQKEINRRMALAQAYNDSLNNVHLEDPAEKKRIQKGIAEYARMLEVSEKIGIISVPKIGQKLPIFAGSSQEVLSKGAGHLEGTSLPIGGNSTHTVITAHSGIPDKELFSNLKKLKKGDKFYIQNIKETIAYQVDQIKVVTPDNFSDLLVVPGHDYATLLTCTPIMVNTHRLLVRGHRIPYKGPIDEKLIKDGHLNTIYRYLFYISLVIIAWLLWLIKRQRQKNRLSSVRKGIES
in vitro polymerization (HMW polymers on SDS-PAGE) [1]: HMW polymers could be observed
in vitro polymerization (HMW structures on SDS-PAGE) [2]: some HMW structures were formed
in vitro polymerization (SDS-PAGE) [3]: FIG. 7 shows that mutant sortase enzymes polymerize pilus proteins from a variety of gram positive bacteria
in vitro polymerization (high-molecular-weight bands on SDS-PAGE) [4]: The typical pili pattern of bands with molecular weights above 260 kDa, visible by SDS-page, could be generated when monomeric r-BP was incubated with rSrtC1Y86A
in vitro polymerization (SDS-PAGE) [5]: FIG. 7 shows that mutant sortase enzymes polymerize pilus proteins from a variety of gram positive bacteria
in vitro polymerization (HMW polymers on SDS-PAGE) [6]: HMW polymers could not be detected
in vitro polymerization (HMW structures on SDS-PAGE) [7]: some HMW structures were formed
in vitro polymerization reaction [8]: the SrtC1Y86A mutant was able to polymerise GFP-IPQTG

B2: wild-type GBS sortase C1 of PI-2a, recombinant SrtC1 43-292 (protein)
chain: ESNNQTQDFERAAKKLSQKEINRRMALAQAYNDSLNNVHLEDPYEKKRIQKGIAEYARMLEVSEKIGIISVPKIGQKLPIFAGSSQEVLSKGAGHLEGTSLPIGGNSTHTVITAHSGIPDKELFSNLKKLKKGDKFYIQNIKETIAYQVDQIKVVTPDNFSDLLVVPGHDYATLLTCTPIMVNTHRLLVRGHRIPYKGPIDEKLIKDGHLNTIYRYLFYISLVIIAWLLWLIKRQRQKNRLSSVRKGIES
in vitro polymerization (high-molecular-weight bands on SDS-PAGE) [4]: showed no formation of high molecular weight bands that could represent pilus polymers

B3: recombinant PI-2b SrtC2 (full-length, strain COH1) in fusion with a His-MBP-tag (protein)
chain: MIRRYSANFLAILGIILVSSGIYWGWYNINQAHQADLTSQHIVKVLDKSITHQVKGSENGELPVKKLDKTDYLGTLDIPNLKLHLPVAANYSFEQLSKTPTRYYGSYLTNNMVICAHNFPYHFDALKNVDMGTDVYFTTTTGQIYHYKISNREIIEPTAIEKVYKTATSDNDWDLSLFTCTKAGVARVLVRCQLIDVKN
FRET assay, cleavage of fluorescent peptide [9]: The PI-2b SrtC1 and SrtC2 enzymes are able to cleave the fluorescent peptides
FRET assay, cleavage of fluorescent peptide [10]: The PI-2b SrtC1 and SrtC2 enzymes are able to cleave the fluorescent peptides

B4: recombinant PI-2b SrtC1 (full-length, strain COH1) in fusion with a His-MBP-tag (protein)
chain: MAYPSLANYWNSFHQSRAIMDYQDRVTHMDENDYKKIINRAKEYNKQFKTSGMKWHMTSQERLDYNSQLAIDKTGNMGYISIPKINIKLPLYHGTSEKVLQTSIGHLEGSSLPIGGDSTHSILSGHRGLPSSRLFSDLDKLKVGDHWTVSILNETYTYQVDQIRTVKPDDLRDLQIVKGKDYQTLVTCTPYGVNTHRLLVRGHRVPNDNGNALVVAEAIQIEPIYIAPFIAIFLTLILLLISLEVTRRARQRKKILKQAMRKEENNDL
FRET assay, cleavage of fluorescent peptide [9]: The PI-2b SrtC1 and SrtC2 enzymes are able to cleave the fluorescent peptides
FRET assay, cleavage of fluorescent peptide [10]: The PI-2b SrtC1 and SrtC2 enzymes are able to cleave the fluorescent peptides

B5: PI-2b SrtC1 expressed from a complementation vector in GBS strain 515Δ2a (protein)
chain: MAYPSLANYWNSFHQSRAIMDYQDRVTHMDENDYKKIINRAKEYNKQFKTSGMKWHMTSQERLDYNSQLAIDKTGNMGYISIPKINIKLPLYHGTSEKVLQTSIGHLEGSSLPIGGDSTHSILSGHRGLPSSRLFSDLDKLKVGDHWTVSILNETYTYQVDQIRTVKPDDLRDLQIVKGKDYQTLVTCTPYGVNTHRLLVRGHRVPNDNGNALVVAEAIQIEPIYIAPFIAIFLTLILLLISLEVTRRARQRKKILKQAMRKEENNDL
pili polymerisation in complemented GBS 515Δ2a (western blot) [11]: transfection with BP and SrtC1 resulted in the formation of high molecular weight polymers
